Data as given in patent publication US20240376214A1, “ANTI-C-MET ANTIBODIES AND ANTIBODY-DRUG CONJUGATES” (BYONDIS B.V., priority 2021, published 2024).
Changes are numbered by the printed parent chain.

B1: ADC1a (antibody, human IgG1, kappa, V domains shown)
VH: QVQLVQSGAEVKKPGASVKVSCKASGYIFTDYFMNWVRQACGQGLEWMGRVNPKNGDITYNQKFRGRVSLTKDTSINTAYMELSGLTSDDTAIYYCAYDGYYDGMDFWGQGTSVTVSS
VL: ELVMTQSPSSLSASVGDRVTITCRANSSVSSNFLHWYQQKPGKAPKLLISSTSNLAFGVPSRFSGTGSGTDFSLTISSLQPEDFAIYYCHQYSGHPFTFGQGTKLEIKR
modifications: vc-seco-DUBA linker-drug on the engineered cysteine at HC position 41 (Kabat); DAR 1.7
B2: ADC3a (antibody, human IgG1, kappa, V domains shown)
VH: QVQLVQSGAEVKKPGASVKVSCKASGYTFTDYYLNWVRQACGQGLEWMGLIFPGNDKTEYSEKFKGRVTLTTDTSISTAYMELSSLTSDDTALYYCSGGDYGGFVYWGQGTLVTVSS
VL: DIQLTQSPSSLSASVGDRVTITCGASENIYGALNWYQQKPGKAPKLLIYGATNLADGVPSRFSGSGSGTDFTLTISSLQPEDFATYYCQNVLSSPLTFGPGTKVDIKR
modifications: vc-seco-DUBA linker-drug on the engineered cysteine at HC position 41 (Kabat); DAR 1.9
B3: ADC3d (antibody, human IgG1, kappa, V domains shown)
VH: B2 VH with V5Q, Q6E, L70M, T72R, I76T, A79V, T87R, D89E, L93V
VL: B2 VL
modifications: vc-seco-DUBA linker-drug on the engineered cysteine at HC position 41 (Kabat); DAR 1.8
B4: ADC3e (antibody, human IgG1, kappa, V domains shown)
VH: B2 VH with V5Q, Q6E, L70M, T72R, I76T, A79V, T87R, D89E, L93V
VL: B2 VL with L4M, F83V, P100S, V104L, D105E
modifications: vc-seco-DUBA linker-drug on the engineered cysteine at HC position 41 (Kabat); DAR 1.9
B5: ADC3c (antibody, human IgG1, kappa, V domains shown)
VH: B2 VH
VL: B2 VL with L4M, F83V, P100S, V104L, D105E
modifications: vc-seco-DUBA linker-drug on the engineered cysteine at HC position 41 (Kabat); DAR 1.8
B6: ADC3 (antibody, human IgG1, kappa, V domains shown)
VH: QIQLQQSGPELVKPGASVKISCKASGYTFTDYYLNWVKQRCGQGLEWIGLIFPGNDKTEYSEKFKGKATLTVDTSSSTAYIQLSRLSSEDSAIYFCSGGDYGGFVYWGQGTLVTVSS
VL: DIQMTQSPTSLSASVGETVTITCGASENIYGALNWYQRKQGKSPQLLIYGATNLADGMSSRFSGSGSGRQFSLKINSLHPDDVATYFCQNVLSSPLTFGSGTKLEIKR
modifications: vc-seco-DUBA linker-drug on the engineered cysteine at HC position 41 (Kabat); DAR 1.1
B7: ADC2 (antibody, human IgG1, kappa, V domains shown)
VH: QVQLQQSGAELVRPGASVKLSCKASGYVFPDYEMHWVKQTCVHGLEWIGAFDPETGDTTYNQNFKGKATLTADKASSTAYMDLRSLTSGDSAVYYCARDYKYLYYYAMDNWGQGTSVTVSS
VL: QIVLTQSPAIMSASLGERVTMTCTASSSITSSYLHWYQQKPGSSPKLWIYSTTNLASGVPGRFSGSGSGTSFSLTISSMEAEDAATYYCHQYRRSPLTFGAGTKLELKR
modifications: vc-seco-DUBA linker-drug on the engineered cysteine at HC position 41 (Kabat); DAR 1.7
B8: ADC1 (antibody, human IgG1, kappa, V domains shown)
VH: EVQLQQSGPELLKPGASVKMSCKASGYIFTDYFMNWVKQSCGKSLEWIGRVNPKNGDITYNQKFRGKATLTVDKSLTTAYMQLNSLTSEDSAVYFCAYDGYYDGMDFWGQGTSVTVSS
VL: ENVLTQSPAIMSASPGEKVTMTCRANSSVSSNFLHWYQQKSGASPKLWISSTSNLAFGVPPRFSGSGSGTSYSLTISSVEAEDAATYYCHQYSGHPFTFGSGTKLEIKR
modifications: vc-seco-DUBA linker-drug on the engineered cysteine at HC position 41 (Kabat); DAR 1.5
B9: ADC2a (antibody, human IgG1, kappa, V domains shown)
VH: QVQLVQSGAELRKPGSSVKVSCRASGYVFPDYEMHWVRQACGQGLEWMGAFDPETGDTTYNQNFKGRVTIAADKSTSTAYMELRSLRSEDTAIYYCARDYKYLYYYAMDNWGQGTMVTVSS
VL: EIVLTQSPSLLSASIGDRVTIPCTASSSITSSYLHWYQQKPGKAPKLLIYSTTNLASGVPSRFSGSGSGTEFTLTISSLQPEDFATYYCHQYRRSPLTFGGGTKLEIKR
modifications: vc-seco-DUBA linker-drug on the engineered cysteine at HC position 41 (Kabat); DAR 1.7
B10: ADC2c (antibody, human IgG1, kappa, V domains shown)
VH: B9 VH with L11V, R12K, R23K, A71T, R84S, I93V, M116T
VL: B9 VL
modifications: vc-seco-DUBA linker-drug on the engineered cysteine at HC position 41 (Kabat); DAR 1.7
B11: ADC2b (antibody, human IgG1, kappa, V domains shown)
VH: B9 VH with L11V, R12K, R23K, A71T, R84S, I93V, M116T
VL: B9 VL with E1D, V3Q, L4M, L10S, I15V, P22T, E71D
modifications: vc-seco-DUBA linker-drug on the engineered cysteine at HC position 41 (Kabat); DAR 1.7

target: human c-Met (HGFR), full length, on the cell surface (human) (UniProt P08581); assay: cell-based or functional assay
Sequence (P08581 25-1390 limits assumed): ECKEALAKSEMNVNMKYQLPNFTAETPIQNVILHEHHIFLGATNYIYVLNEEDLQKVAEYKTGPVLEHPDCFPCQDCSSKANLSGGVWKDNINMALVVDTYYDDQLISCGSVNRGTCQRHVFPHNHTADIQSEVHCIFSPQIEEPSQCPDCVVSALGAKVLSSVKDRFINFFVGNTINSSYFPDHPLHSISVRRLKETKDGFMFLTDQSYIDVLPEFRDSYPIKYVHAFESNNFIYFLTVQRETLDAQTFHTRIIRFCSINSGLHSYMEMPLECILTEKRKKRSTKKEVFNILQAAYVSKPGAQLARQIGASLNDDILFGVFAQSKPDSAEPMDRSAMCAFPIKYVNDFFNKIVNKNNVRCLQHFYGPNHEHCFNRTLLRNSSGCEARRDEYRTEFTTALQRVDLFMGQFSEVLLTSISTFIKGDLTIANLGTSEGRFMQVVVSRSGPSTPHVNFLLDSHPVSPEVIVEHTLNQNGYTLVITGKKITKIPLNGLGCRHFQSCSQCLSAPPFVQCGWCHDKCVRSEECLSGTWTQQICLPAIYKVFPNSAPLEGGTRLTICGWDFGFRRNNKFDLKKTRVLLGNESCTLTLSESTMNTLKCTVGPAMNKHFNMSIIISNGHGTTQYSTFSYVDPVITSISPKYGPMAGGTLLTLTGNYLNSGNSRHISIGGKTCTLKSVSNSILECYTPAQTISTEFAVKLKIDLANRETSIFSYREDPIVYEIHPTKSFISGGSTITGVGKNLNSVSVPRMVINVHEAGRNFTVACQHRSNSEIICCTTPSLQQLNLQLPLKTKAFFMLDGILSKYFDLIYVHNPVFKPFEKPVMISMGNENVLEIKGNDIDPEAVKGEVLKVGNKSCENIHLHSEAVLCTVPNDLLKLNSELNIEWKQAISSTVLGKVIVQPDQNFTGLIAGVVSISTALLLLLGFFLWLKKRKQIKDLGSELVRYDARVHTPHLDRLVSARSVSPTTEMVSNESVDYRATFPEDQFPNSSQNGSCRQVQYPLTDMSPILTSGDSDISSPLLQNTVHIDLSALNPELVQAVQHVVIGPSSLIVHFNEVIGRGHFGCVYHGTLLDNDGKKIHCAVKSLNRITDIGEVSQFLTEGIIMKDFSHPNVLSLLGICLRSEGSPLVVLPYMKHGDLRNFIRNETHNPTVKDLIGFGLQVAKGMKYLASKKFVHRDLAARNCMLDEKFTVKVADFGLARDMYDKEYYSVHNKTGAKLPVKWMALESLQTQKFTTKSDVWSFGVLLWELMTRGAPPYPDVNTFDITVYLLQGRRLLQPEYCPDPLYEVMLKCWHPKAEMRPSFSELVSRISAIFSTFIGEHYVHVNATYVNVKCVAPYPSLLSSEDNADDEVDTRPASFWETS

Molecule | Efficacy (%), in vitro cytotoxicity, MKN-45, -HGF [%] | Efficacy (%), in vitro cytotoxicity, NCI-H596, +HGF [%] | Efficacy (%), in vitro cytotoxicity, NCI-H596, -HGF [%] | Efficacy (%), in vitro cytotoxicity, PC-3, +HGF [%] | Efficacy (%), in vitro cytotoxicity, PC-3, -HGF [%] | IC50, in vitro cytotoxicity, MKN-45, -HGF [nM] | IC50, in vitro cytotoxicity, NCI-H596, +HGF [nM] | IC50, in vitro cytotoxicity, NCI-H596, -HGF [nM] | IC50, in vitro cytotoxicity, PC-3, +HGF [nM] | IC50, in vitro cytotoxicity, PC-3, -HGF [nM]
non-binding control ADC (rituximab-vc-seco-DUBA) (antibody) | 0 | 18 | 7 | 36 | 36 | > 10 | > 10 | > 10 | > 10 | > 10

target: human c-Met (HGFR), full length, on the cell surface (human, UniProt P08581 25-1390); assay: cell-based or functional assay
Sequence (P08581 25-1390 limits assumed): as above

Molecule | Efficacy (%), in vitro cytotoxicity, MKN-45, -HGF [%] | Efficacy (%), in vitro cytotoxicity, NCI-H596, +HGF [%] | Efficacy (%), in vitro cytotoxicity, NCI-H596, -HGF [%] | Efficacy (%), in vitro cytotoxicity, PC-3, +HGF [%] | Efficacy (%), in vitro cytotoxicity, PC-3, -HGF [%] | IC50 1, in vitro cytotoxicity, PC-3, -HGF [nM] | IC50 2, in vitro cytotoxicity, PC-3, -HGF [nM] | IC50, in vitro cytotoxicity, MKN-45, -HGF [nM] | IC50, in vitro cytotoxicity, NCI-H596, +HGF [nM] | IC50, in vitro cytotoxicity, NCI-H596, -HGF [nM]
B1 | 84 | 40 | 14 | 77 | 78 | 0.6 | 224 | 0.42 | > 10 | > 10
B2 | 85 | 43 | 3 | 72 | 73 | 0.05 | 5.77 | 0.55 | 2.14 | > 10
B3 | 82 | 41 | 5 | 73 | 74 | 0.04 | 54 | 0.5 | 2.17 | > 10
B4 | 81 | 44 | 11 | 74 | 74 | 0.04 | 541 | 0.46 | 2.52 | > 10
B5 | 84 | 44 | 10 | 72 | 73 | 0.04 | 112 | 0.41 | 1.89 | > 10
B6 | 50 | 53 | 16 | 30 | 24 |  |  | 0.77 | 1.86 | > 10
B7 | 76 | 32 | 6 | 69 | 69 | 0.05 | 84 | 0.44 | > 10 | > 10
B8 | 72 | 29 | 16 | 42 | 41 |  |  | 0.73 | 0.38 | > 10
B9 | 86 | 26 | 8 | 76 | 77 | 0.06 | 40 | 0.44 | > 10 | > 10
B10 | 84 | 32 | 3 | 75 | 76 | 0.08 | 58 | 0.41 | > 10 | > 10
B11 | 84 | 34 | 10 | 75 | 77 | 0.05 | 100 | 0.4 | > 10 | > 10

same assay, conditions: not given

Molecule | IC50, in vitro cytotoxicity, PC-3, +HGF [nM] | IC50, in vitro cytotoxicity, PC-3, -HGF [nM]
B1 | ~1.22 | 
B2 | ~0.71 | 
B3 | ~2.49 | 
B4 | ~2.86 | 
B5 | ~1.85 | 
B6 | 0.224 | 0.076
B7 | ~10 | 
B8 | 0.185 | 0.069
B9 | ~0.74 | 
B10 | ~1.97 | 
B11 | ~2.46 | 
